Source: patent US20120251547A1 (Amgen, published 2012)
Where a chain is given by its changes, count along the chain named. Where two headings read alike, the source gives them in different places. Blank lines part the entries; values can stand above or below the binder they belong to.

Experiments:
[1] = target: T1, cynomolgus IL-17RA, on cells (cynomolgus); assay: FACS competition: non-clonal supernatant inhibiting biotin-huIL-17A (competitor) binding to cyno IL-17RA+ CHO cells
T1 construct: whole, on cells; also called CHO-cynoIL-17RA; cyno IL-17RA+ CHO cells

huIL-17RA-FLAG-polyHis [2] = target: T2, huIL-17RA-FLAG-polyHis (human, UniProt Q96F46 33-320); assay: binning; IL-17RA held by bead mAb Q
T2 construct: also called IL-17RA-FLAG-pHis; wild-type IL-17RA

huIL-17RA-FLAG-polyHis [3] = target: T2, huIL-17RA-FLAG-polyHis; assay: binning; IL-17RA held by bead mAb F
huIL-17RA-FLAG-polyHis [4] = target: T2, huIL-17RA-FLAG-polyHis; assay: binning; IL-17RA held by bead mAb G
huIL-17RA-FLAG-polyHis [5] = target: T2, huIL-17RA-FLAG-polyHis; assay: binning; IL-17RA held by bead mAb N
huIL-17RA-FLAG-polyHis [6] = target: T2, huIL-17RA-FLAG-polyHis; assay: binning; IL-17RA held by bead mAb P
huIL-17RA-FLAG-polyHis [7] = target: T2, huIL-17RA-FLAG-polyHis; assay: binning; IL-17RA held by bead mAb D
huIL-17RA-FLAG-polyHis [8] = target: T2, huIL-17RA-FLAG-polyHis; assay: binning; IL-17RA held by bead mAb R
huIL-17RA-FLAG-polyHis [9] = target: T2, huIL-17RA-FLAG-polyHis; assay: binning; IL-17RA held by bead mAb A
huIL-17RA-FLAG-polyHis [10] = target: T2, huIL-17RA-FLAG-polyHis; assay: binning; IL-17RA held by bead mAb M
huIL-17RA-FLAG-polyHis [11] = target: T2, huIL-17RA-FLAG-polyHis; assay: binning; IL-17RA held by bead mAb H
huIL-17RA-FLAG-polyHis [12] = target: T2, huIL-17RA-FLAG-polyHis; assay: binning; IL-17RA held by bead mAb K
huIL-17RA-FLAG-polyHis [13] = target: T2, huIL-17RA-FLAG-polyHis; assay: binning; IL-17RA held by bead mAb E
huIL-17RA-FLAG-polyHis [14] = target: T2, huIL-17RA-FLAG-polyHis; assay: binning; IL-17RA held by bead mAb C
huIL-17RA-FLAG-polyHis [15] = target: T2, huIL-17RA-FLAG-polyHis; assay: binning; IL-17RA held by bead mAb O
huIL-17RA-FLAG-polyHis [16] = target: T2, huIL-17RA-FLAG-polyHis; assay: binning; IL-17RA held by bead mAb L
huIL-17RA-FLAG-polyHis [17] = target: T2, huIL-17RA-FLAG-polyHis; assay: binning; IL-17RA held by bead mAb I
huIL-17RA-FLAG-polyHis [18] = target: T2, huIL-17RA-FLAG-polyHis; assay: binning; IL-17RA held by bead mAb J
[19] = target: T3, human IL-17RA, full-length, on cells (human, UniProt Q96F46 33-866); assay: cell-based or functional assay
[20] = target: human IL-17RA (form used in the low resolution BIAcore not stated) (human, UniProt Q96F46 33-320, limits assumed); assay: low resolution BIAcore, subcloned hybridoma
huIL-17RA-FLAG-polyHis [21] = target: T2, huIL-17RA-FLAG-polyHis; assay: binning; IL-17RA held by bead mAb B
[22] = target: T3, human IL-17RA, full-length, on cells; assay: cell-based or functional assay; remark: listed apart in the source
[23] = target: T1, cynomolgus IL-17RA, on cells; assay: cell-based or functional assay
[24] = target: T1, cynomolgus IL-17RA, on cells; assay: FACS competition: non-clonal supernatant inhibiting biotin-huIL-17A (competitor) binding to cyno IL-17RA+ CHO cells; remark: listed apart in the source

MFI [1]: 6 | normalized MFI (huIL-17RA-FLAG-polyHis [2]): 135 | normalized MFI (huIL-17RA-FLAG-polyHis [3]): 2220 | normalized MFI (huIL-17RA-FLAG-polyHis [4]): 4490 | normalized MFI (huIL-17RA-FLAG-polyHis [5]): 83 | normalized MFI (huIL-17RA-FLAG-polyHis [6]): 2540 | normalized MFI (huIL-17RA-FLAG-polyHis [7]): 1370 | normalized MFI (huIL-17RA-FLAG-polyHis [8]): 76 | normalized MFI (huIL-17RA-FLAG-polyHis [9]): 3000 | normalized MFI (huIL-17RA-FLAG-polyHis [10]): 73 | normalized MFI (huIL-17RA-FLAG-polyHis [11]): 120 | normalized MFI (huIL-17RA-FLAG-polyHis [12]): -111 | normalized MFI (huIL-17RA-FLAG-polyHis [13]): 1260 | normalized MFI (huIL-17RA-FLAG-polyHis [14]): 4510 | normalized MFI (huIL-17RA-FLAG-polyHis [15]): 139 | normalized MFI (huIL-17RA-FLAG-polyHis [16]): 18 | normalized MFI (huIL-17RA-FLAG-polyHis [17]): 10 | normalized MFI (huIL-17RA-FLAG-polyHis [18]): 59 | IL-17A/HFF bioassay IC50, subclone 24 [19]: 1.6 nM | IL-17A/HFF bioassay IC50, subclone 25 [19]: 2.3 nM | IL-17A/HFF bioassay IC50, subclone 26 [19]: 1.4 nM | Kd [20]: 6.2 nM | normalized MFI (huIL-17RA-FLAG-polyHis [21]): 630 | % inhibition of IL-6 Production, IL-17A/HFF bioassay, non-clonal supernatant 1:4 [22]: 86% | % inhibition of IL-6 Production, IL-17A/HFF bioassay, non-clonal supernatant 1:32 [22]: 90% | % inhibition of IL-6 Production, IL-17A/HFF bioassay, non-clonal supernatant 1:128 [22]: 71%
B1: AMH16/AML16 (antibody, IgG2, V domains shown)
VH: QVQLVQSGAEVKKPGASVKVSCKASGYTFTSYGISWVRQAPGQGLEWMGWISAYNGNTKYAQKLQGRVTMTTDTSTSTVYMELRSLRSDDTAVYYCARKQLVFDYWGQGTLVTVSS
VL: EIVMTQSPATLSVSPGERATLSCRASQSISTSLAWYQQKPGQAPRLLIYGTSTRATGIPARFSGSGSGTEFTLTISSLQSEDFAVYFCQQYDIWPLTFGGGTKVEIK
notes: human mAb from IgG2 XenoMouse mice; also called AM-16; antibody O

cynomolgous IL-17A-induced IL-6 production from JTC-12 cells, IC50 [23]: ~1.2 nM | MFI [24]: 10
B2: AMH14/AML14 (antibody, V domains shown)
VH: B1 VH with S31R, A53T, N55S, K59N, V79A, K99R, V102Y
VL: EIVMTQSPATLSVSPGERATLSCRASQSVSSNLAWFQQKPGQAPRPLIYDASTRATGVPARFSGSGSGTDFTLTISSLQSEDFAVYYCQQYDNWPLTFGGGTKVEIK
notes: human mAb from IgG2 XenoMouse mice; also called AM-14; antibody K

MFI [1]: 6 | IL-17A/HFF bioassay IC50, subclone 13 [19]: > 10 nM | Kd [20]: 7.6 nM | % inhibition of IL-6 Production, IL-17A/HFF bioassay, non-clonal supernatant 1:4 [22]: 73% | % inhibition of IL-6 Production, IL-17A/HFF bioassay, non-clonal supernatant 1:32 [22]: 78% | % inhibition of IL-6 Production, IL-17A/HFF bioassay, non-clonal supernatant 1:128 [22]: 75%
B3: AMH13/AML13 (antibody, IgG2, V domains shown)
VH: QVQLVESGGGVVQPGRSLRLSCAASGFTFSSYGMQWVRQAPGKGLEWVAVIWYDGNKKYYADSVKGRFTISRDNSKNTLYLQMNSLRAEDTAVYYCARGRVRDYYYGMDVWGQGTTVTVSS
VL: DIVMTQTPLSLSVTPGQPASIACKSSQSLLHSDGKTYLYWYLQKPGQPPQLLIYEVSTRFSGVPDRFSGSGSGTDFTLKISRVEAEDVGVFYCMQSIQLPLTFGGGTKVEIK
notes: human mAb from IgG2 XenoMouse mice; also called AM-13

MFI [24]: 6
B4: AMH15/AML15 (antibody, IgG2, V domains shown)
VH: B3 VH
VL: B2 VL with A19V, T56A, V58I
notes: human mAb from IgG2 XenoMouse mice; tested only as part of a non-clonal hybridoma supernatant; also called AM-15
